Results published in publication PMC12082725.

Target: SARS-CoV-2 nucleocapsid protein (NP), full length (SARS-CoV-2, UniProt P0DTC9 1-419)
Experiment: BLI

B1: 11-mer 5' TRS-derived RNA (ssRNA)
RNA: UCUAAACGAAC
- Kd: 3.83 ± 0.04 nM
